Experimental data: doi:10.1101/2023.07.25.550448 (bioRxiv, 2023)
Values joined by “and” are separate entries in the source; they are usually repeats but may differ in a detail not shown here. Equal values may be shown once. No end group written: not given here. *: point of attachment. Biotin = O=C1N[C@H]2[C@H](CS[C@H]2CCCCC(=O)*)N1

Experiments:
His6-p97 WT [1] = biological target: T1, His6-p97 WT (human, UniProt P55072 1-806); experiment: pull-down
His6-p97 WT [2] = biological target: T1, His6-p97 WT; experiment: SPR
His6-p97 WT [3] = biological target: T1, His6-p97 WT; experiment: mass photometry

T1 sequence (P55072 whole entry): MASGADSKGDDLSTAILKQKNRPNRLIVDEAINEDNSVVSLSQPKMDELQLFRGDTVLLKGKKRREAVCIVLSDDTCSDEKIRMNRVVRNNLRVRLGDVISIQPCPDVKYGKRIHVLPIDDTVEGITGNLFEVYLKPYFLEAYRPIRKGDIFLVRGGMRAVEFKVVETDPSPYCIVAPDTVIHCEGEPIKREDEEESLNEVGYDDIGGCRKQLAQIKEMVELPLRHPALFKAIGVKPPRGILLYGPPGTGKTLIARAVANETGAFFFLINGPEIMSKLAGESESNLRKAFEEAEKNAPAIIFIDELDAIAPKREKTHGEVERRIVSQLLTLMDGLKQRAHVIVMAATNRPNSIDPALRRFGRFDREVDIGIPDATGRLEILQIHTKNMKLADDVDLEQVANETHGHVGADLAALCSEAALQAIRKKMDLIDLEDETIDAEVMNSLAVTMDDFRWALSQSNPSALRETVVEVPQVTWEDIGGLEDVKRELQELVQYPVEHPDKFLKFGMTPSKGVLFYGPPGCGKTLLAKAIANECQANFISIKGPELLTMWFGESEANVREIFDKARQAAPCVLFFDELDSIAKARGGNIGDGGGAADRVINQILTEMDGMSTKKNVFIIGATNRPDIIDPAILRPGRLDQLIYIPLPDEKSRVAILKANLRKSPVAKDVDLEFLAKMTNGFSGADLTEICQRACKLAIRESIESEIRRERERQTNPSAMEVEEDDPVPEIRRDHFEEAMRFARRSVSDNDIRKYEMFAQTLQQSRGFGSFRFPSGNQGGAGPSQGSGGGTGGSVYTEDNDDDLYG

| Binder | binding result (His6-p97 WT [1]) | Kd (His6-p97 WT [2]) [nM] | stoichiometry N (His6-p97 WT [3]) |
| --- | --- | --- | --- |
| Biotin-PTPDLEEKRAKLAEAAERRQKEAAS [VIM peptide (SVIP, aa14-39)] | binds |  |  |
| Biotin-NLTSEELRKRREAYFEKQQQK [VBM peptide (ATXN3, aa275-295)] | binds |  |  |
| Strep-HA-VCF1 WT (natural protein) not shown |  | ~10 | 2 VCF1 molecules per p97 hexamer and 3 VCF1 molecules per p97 hexamer |
